In US20180273635A1 (Zymeworks, published 2018):

Assays:
Recombinant human HER2 [1] = biological target: T1, Recombinant human HER2 (human, UniProt P04626 23-652); assay: calculated from the SPR Ka ratio to WT v10013;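 also: SPR at 25 °C with constructs captured on an anti-human Fc chip and HER2 extracellular domain as analyte, kinetics fitted to a 1:1 Langmuir model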
T1 construct: extracellular domain; Analyte of the SPR assays; also called HER2 ECD; ECD2 of HER2
Description: (§1) The affinity towards HER2 ECD of the samples was measured by SPR on a Biacore T200 as follows. Between 2000 and 4000 RU of anti-human Fc injected at concentration between 5 and 10 μg/ml was immobilized on a CM5 chip using standard amine coupling. Antigen-binding constructs were captured on the anti-human Fc (injected at concentration at 0.51 microg/mL in PBST, 1 min at 10 microl/min) at response levels ranging from 120-270 RU. […] HER2 dilutions were analyzed in duplicates. Sensograms were fit globally to a 1: 1 Langmuir binding model, using the software provided with the Biacore T200. All experiments were conducted at 25° C.

Recombinant human HER2 [2] = biological target: T1, Recombinant human HER2; assay: SPR, Biacore T200, 25 C; variant captured on anti-human Fc, HER2 flowed;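 also: HER2 extracellular domain analyte run as duplicate dilutions over amine-coupled anti-Fc on a CM5 chip, rates from global sensorgram fitting with a 1:1 Langmuir model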
Recombinant human HER2 [3] = biological target: T1, Recombinant human HER2; assay: SPR, 25 C; Ka ratio to WT v10013;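 also: constructs captured via anti-human Fc on CM5 chip, HER2 ECD as analyte in duplicate dilutions, sensorgrams globally fit to 1:1 Langmuir model on Biacore T200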
Description: as §1

B1: Variant 14047 (antibody, human IgG1, kappa)
heavy: EVQLVESGGGLVQPGGSLRLSCAASGFTFQDYTMDWVRQAPGKGLEWVADVNPNSGGSIYNQRFKGRFTLSVDRSWNTLYLQMNSLRAEDTAVYYCARNLGPSFYFDYWGQGTLVTVSSASTKGPSVFPLAPSSKSTSGGTAALGCLVKDYFPEPVTVSWNSGALTSGVHTFPAVLQSSGLYSLSSVVTVPSSSLGTQTYICNVNHKPSNTKVDKKVEPKSCDKTHTCPPCPAPELLGGPSVFLFPPKPKDTLMISRTPEVTCVVVDVSHEDPEVKFNWYVDGVEVHNAKTKPREEQYNSTYRVVSVLTVLHQDWLNGKEYKCKVSNKALPAPIEKTISKAKGQPREPQVYVYPPSRDELTKNQVSLTCLVKGFYPSDIAVEWESNGQPENNYKTTPPVLDSDGSFALVSKLTVDKSRWQQGNVFSCSVMHEALHNHYTQKSLSLSPG
light: not shown
chain: not shown
notes: OA (one-armed) format; clones 8775, 7917, 4372; also called v14047
Work on B1 yielded a ΔΔG (Recombinant human HER2 [1]) of -3.1 kcal/mol, a Kd (Recombinant human HER2 [2]) of ~0.1 nM and a koff (Recombinant human HER2 [2]) of ~7.1e-06 s⁻¹. The kon (Recombinant human HER2 [2]) was 70000 M⁻¹ s⁻¹ and the “Ka, mut/Ka, WT” value (Recombinant human HER2 [3]) was ~188 fold.

B2: Variant 14051 (antibody, human IgG1, kappa)
heavy: EVQLVESGGGLVQPGGSLRLSCAASGFTFQDYTMDWVRQAPGKGLEWVADVNPNSGGSIYNQRFKGRFTLSVDRSKNTLYLQMNSLRAEDTAVYYCARNLGPSFYFDYWGQGTLVTVSSASTKGPSVFPLAPSSKSTSGGTAALGCLVKDYFPEPVTVSWNSGALTSGVHTFPAVLQSSGLYSLSSVVTVPSSSLGTQTYICNVNHKPSNTKVDKKVEPKSCDKTHTCPPCPAPELLGGPSVFLFPPKPKDTLMISRTPEVTCVVVDVSHEDPEVKFNWYVDGVEVHNAKTKPREEQYNSTYRVVSVLTVLHQDWLNGKEYKCKVSNKALPAPIEKTISKAKGQPREPQVYVYPPSRDELTKNQVSLTCLVKGFYPSDIAVEWESNGQPENNYKTTPPVLDSDGSFALVSKLTVDKSRWQQGNVFSCSVMHEALHNHYTQKSLSLSPG
light: not shown
chain: not shown
notes: OA (one-armed) format; clones 7815, 8781, 4372; also called v14051
With B2 the ΔΔG (Recombinant human HER2 [1]) was -2.4 kcal/mol, the Kd (Recombinant human HER2 [2]) was ~0.31 nM and the koff (Recombinant human HER2 [2]) was ~1.64e-05 s⁻¹. The kon (Recombinant human HER2 [2]) was 53000 M⁻¹ s⁻¹ and the “Ka, mut/Ka, WT” value (Recombinant human HER2 [3]) was ~62 fold.

B3: Variant 14058 (antibody, human IgG1, kappa)
heavy: EVQLVESGGGLVQPGGSLRLSCAASGFTFQDYTMDWVRQAPGKGLEWVADVNPNSGGSIYNQRFKGRFTLSVDRSWNTLYLQMNSLRAEDTAVYYCARNLGPWFYFDYWGQGTLVTVSSASTKGPSVFPLAPSSKSTSGGTAALGCLVKDYFPEPVTVSWNSGALTSGVHTFPAVLQSSGLYSLSSVVTVPSSSLGTQTYICNVNHKPSNTKVDKKVEPKSCDKTHTCPPCPAPELLGGPSVFLFPPKPKDTLMISRTPEVTCVVVDVSHEDPEVKFNWYVDGVEVHNAKTKPREEQYNSTYRVVSVLTVLHQDWLNGKEYKCKVSNKALPAPIEKTISKAKGQPREPQVYVYPPSRDELTKNQVSLTCLVKGFYPSDIAVEWESNGQPENNYKTTPPVLDSDGSFALVSKLTVDKSRWQQGNVFSCSVMHEALHNHYTQKSLSLSPG
light: not shown
chain: not shown
notes: OA (one-armed) format; clones 8784, 7917, 4372; also called v14058
With B3 the ΔΔG (Recombinant human HER2 [1]) was -0.9 kcal/mol, the Kd (Recombinant human HER2 [2]) was 3.9 nM and the koff (Recombinant human HER2 [2]) was 0.00092 s⁻¹. The kon (Recombinant human HER2 [2]) was 240000 M⁻¹ s⁻¹ and the “Ka, mut/Ka, WT” value (Recombinant human HER2 [3]) was 4 fold.

B4: Variant 14056 (antibody, human IgG1, kappa)
heavy: EVQLVESGGGLVQPGGSLRLSCAASGFTFQDYTMDWVRQAPGKGLEWVADVNPNSGGSIYNQRFKGRFTLSVDRSWNTLYLQMNSLRAEDTAVYYCARNLGPSFYFDYWGQGTLVTVSSASTKGPSVFPLAPSSKSTSGGTAALGCLVKDYFPEPVTVSWNSGALTSGVHTFPAVLQSSGLYSLSSVVTVPSSSLGTQTYICNVNHKPSNTKVDKKVEPKSCDKTHTCPPCPAPELLGGPSVFLFPPKPKDTLMISRTPEVTCVVVDVSHEDPEVKFNWYVDGVEVHNAKTKPREEQYNSTYRVVSVLTVLHQDWLNGKEYKCKVSNKALPAPIEKTISKAKGQPREPQVYVYPPSRDELTKNQVSLTCLVKGFYPSDIAVEWESNGQPENNYKTTPPVLDSDGSFALVSKLTVDKSRWQQGNVFSCSVMHEALHNHYTQKSLSLSPG
light: not shown
chain: not shown
notes: OA (one-armed) format; clones 8775, 8781, 4372; also called v14056
With B4 the ΔΔG (Recombinant human HER2 [1]) was -3 kcal/mol, the Kd (Recombinant human HER2 [2]) was ~0.11 nM and the koff (Recombinant human HER2 [2]) was ~8.4e-06 s⁻¹. The kon (Recombinant human HER2 [2]) was 76000 M⁻¹ s⁻¹ and the “Ka, mut/Ka, WT” value (Recombinant human HER2 [3]) was ~148 fold.

B5: Variant 14059 (antibody, human IgG1, kappa)
heavy: EVQLVESGGGLVQPGGSLRLSCAASGFTFYDYTMDWVRQAPGKGLEWVADVNPNSGGSIYNQRFKGRFTLSVDRSWNTLYLQMNSLRAEDTAVYYCARNLGPSFYFDYWGQGTLVTVSSASTKGPSVFPLAPSSKSTSGGTAALGCLVKDYFPEPVTVSWNSGALTSGVHTFPAVLQSSGLYSLSSVVTVPSSSLGTQTYICNVNHKPSNTKVDKKVEPKSCDKTHTCPPCPAPELLGGPSVFLFPPKPKDTLMISRTPEVTCVVVDVSHEDPEVKFNWYVDGVEVHNAKTKPREEQYNSTYRVVSVLTVLHQDWLNGKEYKCKVSNKALPAPIEKTISKAKGQPREPQVYVYPPSRDELTKNQVSLTCLVKGFYPSDIAVEWESNGQPENNYKTTPPVLDSDGSFALVSKLTVDKSRWQQGNVFSCSVMHEALHNHYTQKSLSLSPG
light: not shown
chain: not shown
notes: OA (one-armed) format; clones 8776, 8781, 4372; also called v14059
In the case of B5, the ΔΔG (Recombinant human HER2 [1]) is reported as -3.3 kcal/mol, the Kd (Recombinant human HER2 [2]) is reported as ~0.061 nM and the koff (Recombinant human HER2 [2]) is reported as ~5.3e-06 s⁻¹. For the same binder, the kon (Recombinant human HER2 [2]) was 88000 M⁻¹ s⁻¹ and the “Ka, mut/Ka, WT” value (Recombinant human HER2 [3]) was ~269 fold.

B6: Variant 14049 (antibody, human IgG1, kappa)
heavy: EVQLVESGGGLVQPGGSLRLSCAASGFTFYDYTMDWVRQAPGKGLEWVADVNPNSGGSIYNQRFKGRFTLSVDRSWNTLYLQMNSLRAEDTAVYYCARNLGPSFYFDYWGQGTLVTVSSASTKGPSVFPLAPSSKSTSGGTAALGCLVKDYFPEPVTVSWNSGALTSGVHTFPAVLQSSGLYSLSSVVTVPSSSLGTQTYICNVNHKPSNTKVDKKVEPKSCDKTHTCPPCPAPELLGGPSVFLFPPKPKDTLMISRTPEVTCVVVDVSHEDPEVKFNWYVDGVEVHNAKTKPREEQYNSTYRVVSVLTVLHQDWLNGKEYKCKVSNKALPAPIEKTISKAKGQPREPQVYVYPPSRDELTKNQVSLTCLVKGFYPSDIAVEWESNGQPENNYKTTPPVLDSDGSFALVSKLTVDKSRWQQGNVFSCSVMHEALHNHYTQKSLSLSPG
light: not shown
chain: not shown
notes: OA (one-armed) format; clones 8776, 7919, 4372; also called v14049
B6 was tested, and the ΔΔG (Recombinant human HER2 [1]) was -2.7 kcal/mol, the Kd (Recombinant human HER2 [2]) was ~0.19 nM and the koff (Recombinant human HER2 [2]) was ~1.4e-05 s⁻¹. The kon (Recombinant human HER2 [2]) was 77000 M⁻¹ s⁻¹ and the “Ka, mut/Ka, WT” value (Recombinant human HER2 [3]) was ~103 fold.

B7: Variant 14060 (antibody, human IgG1, kappa)
heavy: EVQLVESGGGLVQPGGSLRLSCAASGFTFQDYTMDWVRQAPGKGLEWVADVNPNSGGSIYNQRFKGRFTLSVDRSKNTLYLQMNSLRAEDTAVYYCARNLGPWFYFDYWGQGTLVTVSSASTKGPSVFPLAPSSKSTSGGTAALGCLVKDYFPEPVTVSWNSGALTSGVHTFPAVLQSSGLYSLSSVVTVPSSSLGTQTYICNVNHKPSNTKVDKKVEPKSCDKTHTCPPCPAPELLGGPSVFLFPPKPKDTLMISRTPEVTCVVVDVSHEDPEVKFNWYVDGVEVHNAKTKPREEQYNSTYRVVSVLTVLHQDWLNGKEYKCKVSNKALPAPIEKTISKAKGQPREPQVYVYPPSRDELTKNQVSLTCLVKGFYPSDIAVEWESNGQPENNYKTTPPVLDSDGSFALVSKLTVDKSRWQQGNVFSCSVMHEALHNHYTQKSLSLSPG
light: not shown
chain: not shown
notes: OA (one-armed) format; clones 8780, 8781, 4372; also called v14060
Binder B7 has a ΔΔG (Recombinant human HER2 [1]) of -0.3 kcal/mol, a Kd (Recombinant human HER2 [2]) of 9.2 nM and a koff (Recombinant human HER2 [2]) of 0.0013 s⁻¹. The kon (Recombinant human HER2 [2]) was 140000 M⁻¹ s⁻¹ and the “Ka, mut/Ka, WT” value (Recombinant human HER2 [3]) was 2 fold.

B8: Variant 14057 (antibody, human IgG1, kappa)
heavy: EVQLVESGGGLVQPGGSLRLSCAASGFTFTDYTMDWVRQAPGKGLEWVADVNPNSGGSIYNQRFKGRFTLSVDRSWNTLYLQMNSLRAEDTAVYYCARNLGPWFYFDYWGQGTLVTVSSASTKGPSVFPLAPSSKSTSGGTAALGCLVKDYFPEPVTVSWNSGALTSGVHTFPAVLQSSGLYSLSSVVTVPSSSLGTQTYICNVNHKPSNTKVDKKVEPKSCDKTHTCPPCPAPELLGGPSVFLFPPKPKDTLMISRTPEVTCVVVDVSHEDPEVKFNWYVDGVEVHNAKTKPREEQYNSTYRVVSVLTVLHQDWLNGKEYKCKVSNKALPAPIEKTISKAKGQPREPQVYVYPPSRDELTKNQVSLTCLVKGFYPSDIAVEWESNGQPENNYKTTPPVLDSDGSFALVSKLTVDKSRWQQGNVFSCSVMHEALHNHYTQKSLSLSPG
light: not shown
chain: not shown
notes: OA (one-armed) format; clones 8774, 8781, 4372; also called v14057
With B8 the ΔΔG (Recombinant human HER2 [1]) was -0.9 kcal/mol, the Kd (Recombinant human HER2 [2]) was 3.6 nM and the koff (Recombinant human HER2 [2]) was 0.00045 s⁻¹. The kon (Recombinant human HER2 [2]) was 120000 M⁻¹ s⁻¹ and the “Ka, mut/Ka, WT” value (Recombinant human HER2 [3]) was 5 fold.
